In assay [1] the target is methanol dehydrogenase α subunit from Methylococcus capsulatus (Bath) (Methylococcus capsulatus (Bath)). The assay is described as follows: SEC. In general terms: SEC sorts molecules by how far they enter the pores of the column.
For assay [2] the target is unchanged. Put plainly: SEC-MALS.
The target in assay [3] is methanol dehydrogenase from Methylococcus capsulatus (Bath), α2β2 dimer (Methylococcus capsulatus (Bath)). Put plainly: BLI.

“methanol dehydrogenase α subunit from Methylococcus capsulatus (Bath) (natural protein)”: the stoichiometry N in assay [1] and in assay [2] was 2 throughout. In turn, “spmoB, truncated recombinant periplasmic domains of M. capsulatus (Bath) pMMO subunit pmoB (domain or fragment)” yielded a Kd in assay [3] of 9 µM. That is a single-digit micromolar value.

Usually stoichiometry N stands for the number of molecules, sites or subunits per partner or assembly. Broadly, the Kd is the equilibrium constant for the complex coming apart. A low value points to higher affinity.

(Values after publication PMC4188263.)
